Experimental data: the DeepSol protein solubility set

Experiment: soluble on expression in E. coli; label from the status in PepcDB or PDB records

| Sequence | soluble on expression in E. coli |
| --- | --- |
| MSLKASLLQEQSLRLAMTQELRQAITMLQYNVQELSEFLYEQSLENPLIELGGFEREKKKSSNNSKSTSKQVENQMEIYSVDSTTIQQHLLNQIQYYKIEEEERKVASFIIMNMDGNGYLQETNEELANLLSAPLHVVDRSVELVQSLEPAGVGARNIQECLTLQLKRLQRRNGLAEEVVEDHFAYFVKKDWRKLVQVLKCSNEELQDAVNCITSLQPKPGLAFSSDKPLYIVPDMAVKKDGDRLVLQMNERNMPRIEIHSEYSALLNNSESEVASYVSEKYQHVQWIMRSLKQRKQTLLQVMTIIMEKQRDFFWKGPEYLKPLALKEVAEELSVHESTISRATRNKYVQTPHGLFEMKSFFSNAVSTTEDEAVSTKRVKQFIQTLVEAENKKKPLSDQKISKLLEEEHEIVISRRTVAKYREQMHIPASSLRKTIGEGHHHHHH | not soluble |
| MGSDKIHHHHHHMPIYVYWGEDDFAIAKAVTTLRDRVLDPLWTSFNYTSFPPEDSEAPIQALNQVMTPVFGAGGRLVWLMNTNLLQNCPENVLAELTRTLSVIPENSFLLLTCRNKPDERLKSTKLLKQSATEFREFPLIPPWKTELLIQAVNQAAQTVGVKLTPKSAELLAEAVGNDTRLLYNEMEKLRLYAEDNNRPIEENTVTRLVRNTTQNSLQLAAAIRVGDTAKALTILADLINAAEPELRIIATLIGQFRTWLWVKLMVESGERNPQAIAQAAEIGNPKRIYFLQQEVQSLSLRQLISCLPLLLELEVTVKQGRAEISILQIKIIELCQLCQRI | not soluble |
| MNMPKRYSEMTPHELREEIGALKEQAVKAEQLGIVNEFDVLMRKMAMARAYMTDINKFHIGETYELVEEPGVLFKITYFNGVFAWGYKQNDNEEIGIPISLLQEK | not soluble |
| MGHHHHHHSHMPFTPPVVKRLLGWKKSAGGSGGAGGGEQNGQEEKWCEKAVKSLVKKLKKTGRLDELEKAITTQNCNTKCVTIPSTCSEIWGLSTPNTIDQWDTTGLYSFSEQTRSLDGRLQVSHRKGLPHVIYCRLWRWPDLHSHHELKAIENCEYAFNLKKDEVCVNPYHYQRVETP | soluble |
| MAHHHHHHMRLLRLSTKVGMESNNAALRAHLLSLRGTEPVGDPKNPLHVQLQIHDGHRNTLLSHTKELYVTALQHHPETFVNVIPLLPLSDDESSPSNDGGASNDSITLFNAASMTADRGFTPLFSHVALGGTFDRLHAGHKLLLTTALFYASKSLRIGVTLESMLKKKTYGSYIEPFETRCKLVSEFLYSVRRDIDVTVVGITEPSGGTNRDAEIEALVVSPETAGVLASINDERASYGLKPLECIQIPYVSAEGDGRVSSTELRRRLHENASGAN | soluble |
| MSLKSKGIKNLLIDLGGVLINLDRERCIENFKKIGFQNIEEKFCTHQLDGIFLQQEKGLITPAEFRDGIREMMGKMVSDKQIDAAWNSFLVDIPTYKLDLLLKLREKYVVYLLSNTNDIHWKWVCKNAFPYRTFKVEDYFEKTYLSYEMKMAKPEPEIFKAVTEDAGIDPKETFFIDDSEINCKVAQELGISTYTPKAGEDWSHLFRKEGHHHHHH | soluble |
| MGHHHHHHSHMNNRTRLALIICNTEFDHLPPRNGADFDITGMKELLEGLDYSVDVEENLTARDMESALRAFATRPEHKSSDSTFLVLMSHGILEGICGTVHDEKKPDVLLYDTIFQIFNNRNCLSLKDKPKVIIVQACRGANRGELWVRDSPASLEVASSQSSENLEEDAVYKTHVEKDFIAFCSSTPHNVSWRDSTMGSIFITQLITCFQKYSWCCHLEEVFRKVQQSFETPRAKAQMPTIERLSMTRYFYLFPGN | soluble |
| IEKNQIDMANGQELLISESLAVSQATTTFIDQLRILAPFGTDNTVPTFVFKEITPTQIRQIGADNAHLKFQMNQEGAQLDAIAFQMGPQADELAQGTADVAGQLSINEWNGRKKPQ | not soluble |
| GSAEEWYFGKITRRESERLLLNPENPRGTFLVRESETTKGAYCLSVSDFDNAKGLNVKHYKIRKLDSGGFYITSRTQFSSLQQLVAYYSKHADGLCHRLTNVCPTSKEFIVTD | soluble |
| AVPSPPPASPRSQYNFIADVVEKTAPAVVYIEILDRHPFLGREVPISNGSGFVVAADGLIVTNAHVVADRRRVRVRLLSGDTYEAVVTAVDPVADIATLRIQTKEPLPTLPLGRSADVRQGEFVVAMGSPFALQNTITSGIVSSAQRPARDLGLPQTNVEYIQTDAAIDFGNAGGPLVNLDGEVIGVNTMKVTAGISFAIPSDRLREFLHRGEKKNSSSGISGSQRRYIGVMMLTLSPSILAELQLREPSFPDVQHGVLIHKVILGSPAHRAGLRPGDVILAIGEQMVQNAEDVYEAVRTQSQLAVQIRRGRETLTLYVTPEVTE | soluble |
| MAHHHHHHMEQQGDSEAKEHGELTRNGITDNAYDNSVGAFNRTILDRYAHWMTQLDQGACGLRIWKAEELWKRYERVIRVGRGSFGSVFIVYDTERKAYLTVKCMELLGKPGPALRSLSQPTLREVILLSQIDHPNVVRLIDYYLTSDGMLHMCMPIVSHDLVSLIRIWKMRGPRGESSLGRMPLPTVKCVFRQLLRGLEYLHRRNIIHRDLKPSNVMLDDNGVVKIVDFGWARFVPRRWQGRLTGPPCVVTYRPPEILLGGQCSFKYDSSIDIWSAGCILYEMLTGGKAFSNARNEQQALAAITDMLGSPSSRSEVYYGAAGGSRLRPSKRQPRNFEERCRMVNMSNESIDFLGEMLQLEPNSRKSASQLLGHSWFSTSPLPCEPEEVSLPGSNTYRLLERKRTR | not soluble |
| MTATKQTAQVTAVADGTVVTPKGFQAAGVHAGLRYSKNDLGVILCDVPASAAAVYTQSHFQAAPLKVTQASLAVEQKLQAVIVNSACANACTGEQGLKDAYEMRELCAKQFGLALHHVAVASTGVIGEYLPMEKIRAGIEKLVPGATMADAEAFQTAILTTDTVMKRACYQTTVDGKTVTVGGAAKGSGMIHPNMATMLAFITTDANVSSPVLHAALRSITDVSFNQITVDGDTSTNDMVVVMASGLAGNDELTPDHPDWENFYEALRKTCEDLAKQIAKDGEGATKLIEVRVRGAKTDEEAKKIAKQIVGSNLVKTAVYGADANWGRIIGAIGYSDAEVNPDNVDVAIGPIVMLKGSEPQPFSEEEATAYLQQETVVIEVDLHLGDGFGVAWGCDLTYDYVKINASYRT | not soluble |
| MSRTTPYRLDDQIGFILRQANQRYAALFANGIGNGLTPTQWAALVRLGETGPCPQNQLGRLTAMDAATIKGVVERLDKRGLIQRSADPDDGRRLLVSLSPAGRAELEAGLAAAREINRQALAPLSLQEQETLRGLLARLI | soluble |
| MSLSNDRYSMSFTTGSLFHRESVKLAALYLDLGDWNSVRDKVIAENLLQTRTLNTLKRVCREIISRLRTMNPGELDFLVEGSHQEQAYLLWLAVCRRYRFIADFAVEVLRERYITLKADLTHEDFDSFFNRKSEWHLELDEITPATRSKLRQVLFKILREADLLAANNMINAAMLSPRLSDVIHRGSRRDVSYFPLFESDLKGMAKEGHHHHHH | soluble |
| MGSDKIHHHHHHMKIALGPISYCWEKDKVYTFYEKAAQSQVHSVYLGETVCSRRREVKLADYLAIARQLNAAGKEVILSTMALIEAQSEIGELKRCVDNGEFIIEANDMAAVHYASEAKLPFICGPSINNYNRASLDILHKLGMVRFVMPYELSRDWLTKVIETQPEFDIEVMGHGYMPLAHSARCFTAKHFGLRKDNCDTLCKTHPKGMLAQTQENQPLLRLNGIQTQSAAYVDLISEIPNMKALGVSYFRVSPTALSSIELADELCITLTQQQVPQSKHSSESCNGYWFGEAGFNQVSP | not soluble |
| MGSDKIHHHHHHMALIIAGERSGVGKTTTTLTLLAALKARQASVQSFKVGPDYIDPMFHRFVTGRDCRNLDPILTDEDYVQHCFQQHSQTADYTLVEGVMGLFDGLTGKTDTASTAHIARILNLPILLVLNCSSTARSIAAIAYGYQNFDSRLKIAGLVLNRVGSDRHLELLKDALEPLEIPILGVLRRQDEIQIPDRHLGLIPTSELPHLQSVIDRLAVLGQQCFDWNRLEPLLSNSDLNSTAFKSTTPSISLKSSVPIAIARDRAFNFYYADNFDLLRAAGAELIEWSPLQDRQLPAGVQGLYLGGGFPEVFAAELSDNLLARQAVQTAITQGIPCYAECGGLMYLCQHIIDFEQTQYPMVGAIAATAQMGSRLTLGYREATAQQASPLLQKGQVVWGHEFHRSSLREPIAQPLFQLQNFDGSLHYGEGYSQPNLHASYLHLHFGGKPWLIQNFLQACQQATALSR | not soluble |
| MNLGFRVTGKFVRELLDVLDEIAEEIRQEEKEKYPYTEWERKREVVKERLRKLPEYVREAISVITVQKRVGRPKKVDLEKRVMLFLFARLMDKSNRDIEELLELFEPLFGIKVSYKTIERLYSDEEVRMALHNLFILLLREEGVSGDFSGDGTGYSLTITKHYRSNPKRKGKDFRYVFRIIDIDTGMYVGFGYSDRSEKDAFEKALGMLKSMGVKVNSISLDKYYSSRKTLRLFDAETAVYVIPKRNLARIGFDWLRVIERIVEAPYRFLKRYFKRNLSEAGFSADKRRFGWLIRQRREDRREMALFAVGLWHNVFAVRVVR | not soluble |
| MGSDKIHHHHHHMALEDKDLRSIQEVRNLIESANKAQKELAAMSQQQIDTIVKAIADAGYDAREKLAKMAHEETGFGIWQDKVIKNVFASKHVYNYIKDMKTIGMLKEDNEKKVMEVAVPLGVVAGLIPSTNPTSTVIYKTLISIKAGNSIVFSPHPNALKAILETVRIISEAAEKAGCPKGAISCMTVPTIQGTDQLMKHKDTAVILATGGSAMVKAAYSSGTPAIGVGPGNGPAFIERSANIPRAVKHILDSKTFDNGTICASEQSVVVERVNKEAVIAEFRKQGAHFLSDAEAVQLGKFILRPNGSMNPAIVGKSVQHIANLAGLTVPADARVLIAEETKVGAKIPYSREKLAPILAFYTAETWQEACELSMDILYHEGAGHTLIIHSEDKEIIREFALKKPVSRLLVNTPGALGGIGATTNLVPALTLGCGAVGGSSSSDNIGPENLFNIRRIATGVLELEDIRKEENQATPELSVDADALIQSLVEKVLAELK | not soluble |
| MGSDKIHHHHHHMKKEQIIQGPCTIKVLEGEARILGIEIQKNDLLTIPSDKTYTLVYDENTRLETDCKKLLDNLNLRWDEIVEEIINTVGVVLLLGNVDSGKTYLTNLFTNLATSYLKIIDADVGQSTLFLPTFIAELKPMRKTLNLEELGYDTLEFFGDITPSTNPRLHVQKILRLYETTPKERLTVIDTDGWTVGLNSMLHKFELIYTIDPDYIIVFDQKIKDSLPENYRNKAILLKSVNLHKSRSERKANRIAKYERYFKEAKNIKTLSENLLGKQISNILYCAWGEYIQLSDEEPCTDYYIPLNLLKGALLGIIENKKVIGAALLDDLKENEITILSRVNKFTGLVLGYISLNDKFEERRIRFRKCKS | not soluble |
| DDPQRVTWPTNAGTIQQALKRGYVVVAAGIRGRTTVDKSGQRVGQAPAFIVDMKAAIRYVKYNQGRLPGDTNRIITNGTSAGGATSALAGASGNSAYFEPALTALGAAPATDDIFAVSAYCPIHNLEHADMAYEWQFNGINDWHRYQPVAGTTKNGRPKFEPVSGQLTVEEQALSLALKAQFSTYLNQLKLTASDGTHLTLNEAGMGSFRDVVRQLLISSAQTAFDQGTDIHKYAGFVVTGNQVTDLDLSAYLKSLTRMKAVPAFDQLDLTSPENNLFGDATAKAKHFTALAQTRSTVTAQLADAELIQAINPLSYLTTTSSRVAKHWRIRHGAADRDTSFAIPIILAIMLENHGYGIDFALPWDIPHSGD | not soluble |
| VGLGNLKTYGGLRQGSQSYNIDRLKKYLYYGDGTYDDLVNTLLNEAMNDQLESFASFYRGKKLYELPRGWPEIPAKRQR | not soluble |
